T1: human O-GlcNAc hydrolase (hOGA) (Homo sapiens, UniProt O60502, DEL397-534)
T1 sequence (O60502 11-396): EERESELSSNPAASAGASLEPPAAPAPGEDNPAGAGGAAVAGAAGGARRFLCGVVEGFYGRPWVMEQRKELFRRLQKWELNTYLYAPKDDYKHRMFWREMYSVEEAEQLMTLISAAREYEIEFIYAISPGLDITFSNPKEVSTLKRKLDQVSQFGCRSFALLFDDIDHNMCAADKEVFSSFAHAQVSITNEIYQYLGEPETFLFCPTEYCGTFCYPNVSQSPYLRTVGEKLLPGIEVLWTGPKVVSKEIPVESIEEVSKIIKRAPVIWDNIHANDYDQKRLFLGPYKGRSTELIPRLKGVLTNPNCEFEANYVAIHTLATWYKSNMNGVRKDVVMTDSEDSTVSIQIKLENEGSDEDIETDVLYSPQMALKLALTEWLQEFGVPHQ
T1 sequence (O60502 535-715): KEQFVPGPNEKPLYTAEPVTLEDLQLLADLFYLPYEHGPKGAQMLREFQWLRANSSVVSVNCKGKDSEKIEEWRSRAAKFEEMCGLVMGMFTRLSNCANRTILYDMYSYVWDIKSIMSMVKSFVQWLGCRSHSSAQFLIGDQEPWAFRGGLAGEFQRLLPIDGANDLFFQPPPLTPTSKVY


Columns and labels:
[1] = target: T1, human O-GlcNAc hydrolase (hOGA); assay: X-ray crystal structure; assay type: biochemical; conditions: cited from earlier work
[2] = test system: CC(=O)N[C@H]1[C@H](Oc2ccc([N+](=O)[O-])cc2)O[C@H](CO)[C@@H](O)[C@@H]1O; assay: purified protein
SEC-MALS = target: the molecule itself; assay: SEC-MALS

| Molecule | stoichiometry N (SEC-MALS) | other results |
| --- | --- | --- |
| PUGNAc-imidazole | – | Ki [1]: 3.9 µM |
| human O-GlcNAc hydrolase (hOGA) (Homo sapiens; DEL397-534) | – | Km [2]: 40.93 µM |
| near full-length hOGA (His(6)9-916) (enzyme, human, UniProt O60502 9-916, looked up) TLEERESELSSNPAASAGASLEPPAAPAPGEDNPAGAGGAAVAGAAGGARRFLCGVVEGFYGRPWVMEQRKELFRRLQKWELNTYLYAPKDDYKHRMFWREMYSVEEAEQLMTLISAAREYEIEFIYAISPGLDITFSNPKEVSTLKRKLDQVSQFGCRSFALLFDDIDHNMCAADKEVFSSFAHAQVSITNEIYQYLGEPETFLFCPTEYCGTFCYPNVSQSPYLRTVGEKLLPGIEVLWTGPKVVSKEIPVESIEEVSKIIKRAPVIWDNIHANDYDQKRLFLGPYKGRSTELIPRLKGVLTNPNCEFEANYVAIHTLATWYKSNMNGVRKDVVMTDSEDSTVSIQIKLENEGSDEDIETDVLYSPQMALKLALTEWLQEFGVPHQYSSRQVAHSGAKASVVDGTPLVAAPSLNATTVVTTVYQEPIMSQGAALSGEPTTLTKEEEKKQPDEEPMDMVVEKQEETDHKNDNQILSEIVEAKMAEELKPMDTDKESIAESKSPEMSMQEDCISDIAPMQTDEQTNKEQFVPGPNEKPLYTAEPVTLEDLQLLADLFYLPYEHGPKGAQMLREFQWLRANSSVVSVNCKGKDSEKIEEWRSRAAKFEEMCGLVMGMFTRLSNCANRTILYDMYSYVWDIKSIMSMVKSFVQWLGCRSHSSAQFLIGDQEPWAFRGGLAGEFQRLLPIDGANDLFFQPPPLTPTSKVYTIRPYFPKDEASVYKICREMYDDGVGLPFQSQPDLIGDKLVGGLLSLSLDYCFVLEDEDGICGYALGTVDVTPFIKKCKISWIPFMQEKYTKPNGDKELSEAEKIMLSFHEEQEVLPETFLANFPSLIKMDIHKKVTDPSVAKSMMACLLSSLKANGSRGAFCEVRPDDKRILEFYSKLGCFEIAKMEGFPKDVVILGRSL | 2 | – |
| hOGA Split1 (co-expressed fragments 11-396 and 535-715) (complex, human) chain 1: EERESELSSNPAASAGASLEPPAAPAPGEDNPAGAGGAAVAGAAGGARRFLCGVVEGFYGRPWVMEQRKELFRRLQKWELNTYLYAPKDDYKHRMFWREMYSVEEAEQLMTLISAAREYEIEFIYAISPGLDITFSNPKEVSTLKRKLDQVSQFGCRSFALLFDDIDHNMCAADKEVFSSFAHAQVSITNEIYQYLGEPETFLFCPTEYCGTFCYPNVSQSPYLRTVGEKLLPGIEVLWTGPKVVSKEIPVESIEEVSKIIKRAPVIWDNIHANDYDQKRLFLGPYKGRSTELIPRLKGVLTNPNCEFEANYVAIHTLATWYKSNMNGVRKDVVMTDSEDSTVSIQIKLENEGSDEDIETDVLYSPQMALKLALTEWLQEFGVPHQ chain 2: KEQFVPGPNEKPLYTAEPVTLEDLQLLADLFYLPYEHGPKGAQMLREFQWLRANSSVVSVNCKGKDSEKIEEWRSRAAKFEEMCGLVMGMFTRLSNCANRTILYDMYSYVWDIKSIMSMVKSFVQWLGCRSHSSAQFLIGDQEPWAFRGGLAGEFQRLLPIDGANDLFFQPPPLTPTSKVY | 2 | – |

From publication PMC5438047 (Nature chemical biology, 2017)
